Reference: US6368811 (VLAAMS INTERUNIVERSITAIR INSTITUUT VOOR BIOTECHNOLOGIE, dated 2002)

Assays:
[1] = molecular target: T1, syndecan-3 full length cytoplasmic domain fused to the Gal4 DNA-binding domain (UniProt P04386 1-147; O75056 410-442); assay: yeast two-hybrid
T1 construct: also called Gal4-syndecan bait
Excerpt: (§1) The yeast two-hybrid system (Chien et al, 1991; P.N.A.S., 88, 9578–9582) was used to identify the domains of sycl and the residues in the syndecan cytoplasmic domains that are responsible for the syndecan-sycl interaction. Different parts of the original clone (3p11) and of the sycl cDNA were subcloned in the pGAD10 vector (Clontech Laboratories), to code for fusions between the activating domain of Gal4 (Gal4 AD) and various full length, truncated, deleted, point-mutated, or epitope-tagged versions of sycl. […] But a requirement for paired PDZ domains (for instance two PDZ1 or two PDZ2 domains) has also been observed for the interactions of the GRIP adaptor protein with AMPA receptors 12 and the interaction of hDlg with the cytoplasmic domain of the Shaker-type K+channel.
(§2) Baits, comprising at least a cytoplasmic domain FYA (corresponds to Phe-Tyr-Ala) as C-terminal sequence of syndecans fused in frame to the DNA-binding domain of Gal4, were constructed by PCR, using the BamHI/SalI restriction sites of the pAS2 vector (Clontech Laboratories), and used to screen a human liver cDNA library (Clontech Laboratories) cloned in pGAD10. The pAS2 plasmids and library were cotransfected in CG1945 yeast cells, and positive clones were selected on triple minus plates (Leu-, Trp-, His-) and assayed for b-galactosidase activity. Positive cDNA clones were cotransfected with all four bait vectors and with the original pAS2 vector cells to confirm the interaction.

[2] = molecular target: T2, syndecan-2 full length cytoplasmic domain fused to the Gal4 DNA-binding domain (UniProt P04386 1-147; P34741 170-201); assay: yeast two-hybrid
T2 construct: also called Gal4-syndecan bait
Excerpt: as §1, §2

[3] = molecular target: the molecule itself; assay: ligand blot
[4] = molecular target: T3, GST (glutathione S-transferase) itself (UniProt P08515 1-218 = GST); assay: ligand blot
T3 construct: Control; also called isolated GST-moiety
T3 sequence (P08515 whole entry): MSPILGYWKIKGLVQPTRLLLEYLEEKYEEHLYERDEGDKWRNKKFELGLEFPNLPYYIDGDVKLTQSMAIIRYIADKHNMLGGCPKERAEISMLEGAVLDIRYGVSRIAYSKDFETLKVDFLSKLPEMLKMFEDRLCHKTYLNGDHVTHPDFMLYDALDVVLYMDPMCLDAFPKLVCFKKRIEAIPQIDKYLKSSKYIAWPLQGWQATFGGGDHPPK

Binder | binding result [1] | binding result [2] | binding result [3] | binding result [4]
first PDZ domain of sycl alone fused to Gal4 activating domain (other, not shown: large carriers, also called PDZ-1 alone; either of the two PDZ domains alone) VGIRRAEIKQGIREVILCKDQDGKIGLRLKSIDNGIFVQLVQANSPASLVGLRFGDQVLQINGENCAGWSSDKAHKVLKQAFGEKITMTIRDR | no binding | no binding | – | –
N-terminal domain of sycl alone fused to Gal4 activating domain (other, not shown: large carriers, also called The N-terminal domain alone) MSLYPSLEDLKVDKVIQAQTAFSANPANPAILSEASAPIPHDGNLYPRLYPELSQYMGLSLNEEEIRASVAVVSGAPLQGQLVARPSSINYMVAPVTGNDVGIRRAEIKQGIR | no binding | no binding | – | –
GST-sycl M92 (sycl sequence starting at M92) fusion protein (other, Expressed in E. coli BL21; not shown: glutathione S-transferase (GST) as encoded by vector pGEX-5X-2) MVAPVTGNDVGIRRAEIKQGIREVILCKDQDGKIGLRLKSIDNGIFVQLVQANSPASLVGLRFGDQVLQINGENCAGWSSDKAHKVLKQAFGEKITMTIRDRPFERTITMHKDSTGHVGFIFKNGKITSIVKDSSAARNGLLTEHNICEINGQNVIGLKDSQIADILSTSGTVVTITIMPAFIFEHIIKRMAPSIMKSLMDHTIPEV | – | – | no binding | no binding
second PDZ domain of sycl alone fused to Gal4 activating domain (other, not shown: large carriers, also called PDZ-2 alone; either of the two PDZ domains alone) PFERTITMHKDSTGHVGFIFKNGKITSIVKDSSAARNGLLTEHNICEINGQNVIGLKDSQIADILSTSGTVVTITIMPAFI | no binding | no binding | – | –
